Changes are numbered by the printed parent chain. Values joined by “and” are separate entries in the source; they are usually repeats but may differ in a detail not shown here. Identical values can stand only once. Like-named read-outs stand apart in the source and are kept apart here.

For assay [1], the target named is T1, recombinant E. coli-expressed human IL-13 (human, UniProt P35225 35-146).
T1 construct: made and purified at GSK; also called Interleukin-13; rhIL-13
Briefly: ELISA, IL-13 binding to IL13Ralpha2/Fc.

Assay [2] addresses T1, recombinant E. coli-expressed human …. In words: cell-based or functional assay.
Assay [3] addresses T2, recombinant E. coli-expressed cynomolgus IL-13 (cynomolgus, UniProt Q0PW92 21-132). Briefly: cell-based or functional assay.
In assay [4] the target is T1, recombinant E. coli-expressed human …. In words: cell-based or functional assay. The source holds these as a separate data set.
For assay [5], the target named is T2, recombinant E. coli-expressed …. Briefly: cell-based or functional assay. The source holds these as a separate data set.
In assay [6] the target is T1, recombinant E. coli-expressed human …. In words: SPR, no IL-4 bound. For orientation: SPR reads the build-up and loss of mass on a sensor chip optically.
For assay [7] the target is unchanged. In words: SPR, human IL-4 bound first.
For assay [8] the target is unchanged. In words: cell-based or functional assay. This is another data set of the same source.
Assay [9] deals with T3, recombinant E. coli-expressed human IL-4 (human, UniProt P05112 25-153).
T3 sequence: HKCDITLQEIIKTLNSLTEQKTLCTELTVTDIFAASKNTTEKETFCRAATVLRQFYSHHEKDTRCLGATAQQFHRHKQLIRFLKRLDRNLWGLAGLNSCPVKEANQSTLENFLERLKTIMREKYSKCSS
Briefly: cell-based or functional assay.

For assay [10], the target named is T1, recombinant E. coli-expressed human …. Briefly: SPR.
The target is the same in assay [11]. Briefly: SPR, purified.
Assay [12] deals with T3, recombinant E. coli-expressed human IL-4. Briefly: ELISA, IL-4 binding to IL4Ralpha-Fc.
For assay [13] the target is unchanged. In words: SPR.
Assay [14] shares this target. In words: SPR, poor curve fit.
For assay [15], the target named is T4, recombinant E. coli-expressed cynomolgus IL-4 (cynomolgus, UniProt P79339 25-153).
T4 construct: also called cyno IL-4
T4 sequence (looked up): T3 sequence with E26K, V29I, F33L
Briefly: SPR.

The target of assay [16] is T2, recombinant E. coli-expressed …. In words: SPR.
The target in assay [17] is T1, recombinant E. coli-expressed human …. Briefly: SPR exp 3.
Assay [18] has the same target. In words: SPR. This is another data set of the same source.
The target in assay [19] is T3, recombinant E. coli-expressed human IL-4. Briefly: SPR, purified.
Assay [20] deals with T1, recombinant E. coli-expressed human …. Briefly: SPR. The source holds these as a separate data set.
Assay [21] addresses T3, recombinant E. coli-expressed human IL-4. Briefly: SPR. The source holds these as a separate data set.
Assay [22] addresses T2, recombinant E. coli-expressed …. In words: SPR. The source holds these as a separate data set.
Assay [23] has as its target T1, recombinant E. coli-expressed human …. Briefly: cell-based or functional assay. This is another data set of the same source.
The target of assay [24] is T2, recombinant E. coli-expressed …. Briefly: cell-based or functional assay. The source holds these as a separate data set.
Assay [25] has as its target T4, recombinant E. coli-expressed …. Briefly: SPR. This is another data set of the same source.
Assay [26] concerns the target T2, recombinant E. coli-expressed …. In words: SPR. This is another data set of the same source.
Assay [27] deals with T5, recombinant human HER2 (human, UniProt P04626 23-652, limits assumed).
T5 construct: bought
In words: ELISA. For orientation: In an ELISA, binding on a coated surface is turned into a signal by an enzyme label.

B1: DOM10-53-616 domain antibody (other)
VH: GVQLLESGGGLVQPGGSLRLSCAASGFVFPWYDMGWVRQAPGKGLEWVSSIDWHGKITYYADSVKGRFTISRDNSKNTLYLQMNSLRAEDTAVYYCATAEDEPGYDYWGQGTLVTVSS
notes: anti-IL-13 dAb
In general, IC50 refers to the concentration at which inhibition is half-maximal. B1: the half-maximal inhibitory concentration (IC50) in assay [1] is 5.76 nM. The “Mean ND50 (TF-1)” value in assay [2] amounted to 0.416 nM; in assay [3], 4.81 nM; in assay [4], 0.536 nM; in [5], 3.57 nM.

B2: 586H-TVAAPS-210 (bispecific antibody, human IgG1, kappa)
heavy: not shown
light: DIVMTQSPLSLPVTPGEPASISCRSSQNIVHINGNTYLEWYLQKPGQSPRLLIYKISDRFSGVPDRFSGSGSGTDFTLKISRVEADDVGIYYCFQGSHVPWTFGQGTKLEIKRTVAAPSVFIFPPSDEQLKSGTASVVCLLNNFYPREAKVQWKVDNALQSGNSQESVTEQDSKDSTYSLSSTLTLSKADYEKHKVYACEVTHQGLSSPVTKSFNRGEC
A word on the Kd: it is the constant that tells how readily two partners part at equilibrium. What is called koff is the first-order rate constant of dissociation. Usually kon stands for the second-order rate constant of association. Consider B2, for which the Kd in assay [6] turned out to be 0.381 nM; in [7], 0.325 nM; in assay [10], 0.4 nM; in [11], 0.38 nM. Moreover, the koff came out at 0.000347 s⁻¹ in assay [6] and 0.000315 s⁻¹ in assay [7]. Also, the values for the kon in [6] and in assay [7] were 909000 M⁻¹ s⁻¹ and 968000 M⁻¹ s⁻¹, respectively. Also, the “Mean IC50 (whole blood phospho-STAT6)” value in [8] is 2.68 nM; in assay [9], 1.23 nM. Moreover, the IC50 in [12] is 23.8 nM and 21 nM.

B3: 586H-ELQLE-147 (bispecific antibody, human IgG1, kappa)
heavy: not shown
light: B2 light
Turning to B3, in assay [13], the koff was found to be 1.52e-05 s⁻¹ and the kon amounted to 701000 M⁻¹ s⁻¹. Besides, the Kd in assay [10] is 0.51 nM. In addition, the Kd in assay [14] was determined as 0.027 nM.

B4: 586H-TVAAPS-210 GS removed (bispecific antibody, human IgG1, kappa)
heavy: not shown
light: B2 light
notes: also called BPC1602
With B4, in [15], the binding result was “binds”. For the same molecule, in [16], the Kd was found to be 0.058 nM, the koff worked out at 2.86e-05 s⁻¹ and the kon came to 492000 M⁻¹ s⁻¹. For the same molecule, in assay [17], the Kd is 0.501 nM. Besides, the Kd in assay [18] came to 0.562 nM. The IC50 in [12] was found to be 19.2 nM.

B5: 586H-TVAAPS-25 (bispecific antibody, human IgG1, kappa)
heavy: not shown
light: B2 light
In the case of B5, the Kd in assay [13] was 0.95 nM; in [10] it was 0.5 nM; in assay [11], 0.38 nM; in assay [19] it was 1.1 nM. For the same molecule, the koff in assay [13] came out at 0.00012 s⁻¹. The on-rate constant (kon) in assay [13] amounted to 127000 M⁻¹ s⁻¹.

B6: 586H-ELQLE-25 (bispecific antibody, human IgG1, kappa)
heavy: not shown
light: B2 light
Turning to B6, in assay [13], the koff stood at 1.63e-06 s⁻¹ and the on-rate constant (kon) turned out to be 1.26e+06 M⁻¹ s⁻¹. In addition, the Kd in assay [10] was 0.42 nM. Also, the Kd in [14] came out at 0.001 nM.

B7: 586H-ELQLE-154 (bispecific antibody, human IgG1, kappa)
heavy: not shown
light: B2 light
Turning to B7, in assay [13], the dissociation rate constant (koff) amounted to 3.57e-06 s⁻¹ and the kon worked out at 1.25e+06 M⁻¹ s⁻¹. The Kd in [10] turned out to be 0.44 nM. Besides, in assay [14], the dissociation constant (Kd) was 0.003 nM.

B8: DOM9-112-210 domain antibody (other)
VH: EVQLLESGGGLVQPGGSLRLSCAASGFTFRNFGMGWVRQAPGKGLEWVSWIISSGTETYYADSVKGRFTISRDNSKNTLYLQMNSLRAEDTAVYYCAKSLGRFDYWGQGTLVTVSS
notes: anti-IL-4 dAb
Turning to B8, the “Mean IC50 (whole blood phospho-STAT6)” value in [9] amounted to 3.51 nM. Moreover, in assay [12], the IC50 is 36.8 nM.

B9: PascoH-TVAAPS-567 (bispecific antibody, human IgG1, kappa)
heavy: not shown
light: DIVLTQSPSSLSASVGDRVTITCKASQSVDYDGDSYMNWYQQKPGKAPKLLIYAASNLESGIPSRFSGSGSGTDFTFTISSLQPEDIATYYCQQSNEDPPTFGQGTKVEIKRTVAAPSVFIFPPSDEQLKSGTASVVCLLNNFYPREAKVQWKVDNALQSGNSQESVTEQDSKDSTYSLSSTLTLSKADYEKHKVYACEVTHQGLSSPVTKSFNRGEC
Turning to B9, the values for the Kd in assay [20] and in assay [22] were 0.038 nM and 8.8 nM, respectively. The koff in assay [20] turned out to be 1.7e-05 s⁻¹; in assay [22], 0.00522 s⁻¹. Moreover, the kon in assay [20] came to 446000 M⁻¹ s⁻¹; in assay [22], 592000 M⁻¹ s⁻¹. Also, the binding result in assay [21] is listed as “binds”. Also, the figures for the “Mean ND50 (TF-1)” value in assay [4] and in assay [5] were 2.06 nM and 38.2 nM, respectively.

B10: PascoH-GS-ASTKGPT-474 2nd GS removed (bispecific antibody, human IgG1, kappa)
heavy: not shown
light: B9 light
Take B10: the “Mean ND50 (TF-1)” value was 1.37 nM in assay [23] and 21.5 nM in assay [24]. Further, the Kd was 0.029 nM in assay [25] and 23.8 nM in assay [26]. The koff in assay [25] is 5.3e-05 s⁻¹; in assay [26], 0.0114 s⁻¹. In addition, the values for the kon in assay [25] and in assay [26] were 1.83e+06 M⁻¹ s⁻¹ and 479000 M⁻¹ s⁻¹, respectively.

B11: PascoH-TVAAPS-546 (bispecific antibody, human IgG1, kappa)
heavy: not shown
light: B9 light
B11: the dissociation constant (Kd) in assay [20] amounted to 0.747 nM; in assay [21], 0.00482 nM; in assay [22] it was 12.5 nM. In addition, the figures for the koff in assay [20], in assay [21] and in assay [22] were 0.000169 s⁻¹, 2.37e-05 s⁻¹ and 0.0209 s⁻¹, respectively. Besides, the kon was found to be 226000 M⁻¹ s⁻¹ in [20], 4.92e+06 M⁻¹ s⁻¹ in [21] and 1.67e+06 M⁻¹ s⁻¹ in assay [22]. In addition, the “Mean ND50 (TF-1)” value in assay [4] came out at 1.52 nM; in assay [5] it was 33.9 nM.

B12: BPC1805 (bispecific antibody, human IgG1, kappa)
heavy: not shown
light: DIVMTQSPLSLPVTPGEPASISCRSSQSIVQSNGDTYLEWYLQKPGQSPQLLIYRVSNRFSGVPDRFSGSGSGTDFTLKISRVEAEDVGVYYCFQGSHVPYTFGQGTKLEIKRTVAAPSVFIFPPSDEQLKSGTASVVCLLNNFYPREAKVQWKVDNALQSGNSQESVTEQDSKDSTYSLSSTLTLSKADYEKHKVYACEVTHQGLSSPVTKSFNRGEC
notes: anti-HER2 Affibody fusion; also called antiIGF1R Heavy Chain-GS-AFFI
B12: in assay [27], the binding result is recorded as “binds”.

B13: BPC1808 (bispecific antibody, human IgG1, kappa)
heavy: not shown
light: B12 light
notes: anti-HER2 DARPin fusion
On to B13, for which the binding result in [27] is reported as “binds”.

B14: BPC1806 (bispecific antibody, human IgG1, kappa)
heavy: not shown
light: B12 light
notes: anti-HER2 Affibody fusion
For the molecule B14, in assay [27], the binding result is “binds”.

B15: BPC1807 (bispecific antibody, human IgG1, kappa)
heavy: not shown
light: B12 light
notes: anti-HER2 DARPin fusion; also called antiIGF1R Heavy Chain-GS-DRPN
For the molecule B15, the binding result in assay [27] is “binds”.

The values are drawn from patent US20110008345A1 (GlaxoSmithKline, published 2011).
